# According to publication doi:10.1101/317651, “Poly(ADP-ribose) polymerase 1 Searches DNA via a ‘Monkey Bar’ Mechanism”:
# B1: p18mer* (dsDNA)
# DNA 1: GGGTTGCGGCCGCTTGGG
# DNA 2: CCCAAGCGGCCGCAACCC
# modifications: 5'-phosphate
# How the values were obtained:
# Conditions in all cases: protein: recombinant; tags: His tag (Ni-NTA, pET28a); blunt
# PARP1 W589A = PARP1 W589A (Homo sapiens, UniProt P09874 1-1014, W589A); test: stopped-flow fluorescence anisotropy; K1; kinetically derived, Scheme 2 (no ternary complex); 50 mM Tris-HCl pH 7.5, 50 mM NaCl, 1 mM MgCl2, 0.1 mM EDTA, 0.01% IGEPAL; 20 °C (stated for association)
# PARP1 W589A, sequence (P09874 whole entry W589A): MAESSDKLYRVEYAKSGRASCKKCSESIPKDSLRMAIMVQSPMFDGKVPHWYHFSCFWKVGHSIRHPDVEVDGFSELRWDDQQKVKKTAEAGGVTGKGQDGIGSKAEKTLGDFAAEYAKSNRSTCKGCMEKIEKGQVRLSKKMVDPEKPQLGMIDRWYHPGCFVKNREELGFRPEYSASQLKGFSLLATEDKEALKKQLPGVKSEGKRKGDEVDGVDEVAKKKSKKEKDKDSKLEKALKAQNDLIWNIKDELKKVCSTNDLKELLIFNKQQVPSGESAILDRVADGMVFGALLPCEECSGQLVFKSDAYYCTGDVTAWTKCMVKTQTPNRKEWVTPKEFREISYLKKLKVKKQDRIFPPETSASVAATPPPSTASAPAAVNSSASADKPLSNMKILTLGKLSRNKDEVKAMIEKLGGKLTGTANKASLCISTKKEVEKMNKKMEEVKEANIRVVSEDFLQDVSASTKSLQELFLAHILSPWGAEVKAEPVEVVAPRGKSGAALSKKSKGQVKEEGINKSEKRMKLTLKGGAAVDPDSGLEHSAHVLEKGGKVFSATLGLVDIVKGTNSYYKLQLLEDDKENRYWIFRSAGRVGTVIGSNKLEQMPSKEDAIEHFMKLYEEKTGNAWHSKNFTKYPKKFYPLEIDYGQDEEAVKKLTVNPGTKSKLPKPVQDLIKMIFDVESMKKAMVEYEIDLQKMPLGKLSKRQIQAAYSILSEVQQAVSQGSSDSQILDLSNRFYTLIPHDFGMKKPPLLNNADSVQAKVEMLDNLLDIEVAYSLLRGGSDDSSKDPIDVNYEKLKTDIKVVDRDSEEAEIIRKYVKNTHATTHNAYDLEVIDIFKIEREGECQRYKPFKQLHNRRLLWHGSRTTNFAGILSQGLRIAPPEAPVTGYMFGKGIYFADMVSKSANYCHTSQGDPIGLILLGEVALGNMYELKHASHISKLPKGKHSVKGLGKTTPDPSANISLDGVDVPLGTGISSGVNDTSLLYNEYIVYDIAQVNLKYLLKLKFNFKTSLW
# PARP1 ΔZn1 = PARP1 ΔZn1 (Homo sapiens, UniProt P09874 1-1014, del2-96); test: stopped-flow fluorescence anisotropy; K1, first DNA; kinetically derived; 50 mM Tris-HCl pH 7.5, 50 mM NaCl, 1 mM MgCl2, 0.1 mM EDTA, 0.01% IGEPAL; 20 °C (stated for association)
# PARP1 ΔZn1, sequence (P09874 other isoform, or with tags, fused parts or gaps del2-96 | mutant): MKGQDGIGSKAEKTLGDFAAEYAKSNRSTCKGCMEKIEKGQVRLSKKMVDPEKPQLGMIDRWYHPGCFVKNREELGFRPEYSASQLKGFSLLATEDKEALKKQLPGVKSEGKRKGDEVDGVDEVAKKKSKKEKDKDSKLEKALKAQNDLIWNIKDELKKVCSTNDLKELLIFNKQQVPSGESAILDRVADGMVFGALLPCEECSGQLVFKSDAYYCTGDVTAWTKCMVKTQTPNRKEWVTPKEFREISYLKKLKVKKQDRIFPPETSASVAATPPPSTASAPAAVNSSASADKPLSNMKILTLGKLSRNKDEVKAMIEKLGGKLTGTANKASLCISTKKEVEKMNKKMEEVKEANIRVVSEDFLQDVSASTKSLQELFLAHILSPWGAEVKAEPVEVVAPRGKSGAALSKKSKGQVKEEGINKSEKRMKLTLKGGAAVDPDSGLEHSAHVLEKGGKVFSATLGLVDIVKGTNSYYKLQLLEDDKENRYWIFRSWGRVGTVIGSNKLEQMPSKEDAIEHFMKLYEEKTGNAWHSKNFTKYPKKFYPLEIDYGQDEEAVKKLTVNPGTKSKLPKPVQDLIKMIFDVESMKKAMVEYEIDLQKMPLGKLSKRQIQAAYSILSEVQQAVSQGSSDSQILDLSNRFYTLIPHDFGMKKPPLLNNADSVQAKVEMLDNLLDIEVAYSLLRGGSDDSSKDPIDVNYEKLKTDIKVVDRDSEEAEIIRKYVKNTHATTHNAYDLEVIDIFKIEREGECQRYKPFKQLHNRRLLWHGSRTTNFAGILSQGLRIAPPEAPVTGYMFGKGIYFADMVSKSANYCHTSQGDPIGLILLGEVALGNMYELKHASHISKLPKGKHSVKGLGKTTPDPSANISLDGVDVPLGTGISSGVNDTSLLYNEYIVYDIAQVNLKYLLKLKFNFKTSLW
# PARP1 wild-type = PARP1 wild-type (Homo sapiens, UniProt P09874 1-1014); test: as above
# PARP1 wild-type, sequence (P09874 whole entry): as the sequence (P09874 whole entry W589A) above, with A589W counted along it
binder,measurement,setting,value
B1,Kd,PARP1 W589A,4.9 ± 1.1 nM
same,Kd,PARP1 ΔZn1,< 2.7 nM
same,Kd,PARP1 wild-type,< 3.2 nM
